{"source": "the DeepSol protein solubility set", "data": [{"assay": "soluble on expression in E. coli; label from the status in PepcDB or PDB records", "values": [{"sequence": "MSVAGLKKQFHKATQKVSEKVGGAEGTKLDDDFKEMERKVDVTSRAVMEIMTKTIEYLQPNPASRAKLSMINTMSKIRGQEKGPGYPQAEALLAEAMLKFGRELGDDCNFGPALGEVGEAMRELSEVKDSLDIEVKQNFIDPLQNLHDKDLREIQHHLKKLEGRRLDFDYKKKRQGKIPDEELRQALEKFDESKEIAESSMFNLLEMDIEQVSQLSALVQAQLEYHKQAVQILQQVTVRLEERIRQASSQPRREYQPKPRMSLEFPTGDSTQPNGGLSHTGTPKPSGVQMDQPCCRALYDFEPENEGELGFKEGDIITLTNQIDENWYEGMLHGHSGFFPINYVEILVALPH", "soluble on expression in E. coli": "soluble"}, {"sequence": "MVSPILANIALNGIESIHRSKAKGQIIEPSVRYADDMVIILKPKDNAIEILERISEFLRKRGMQVSQKKTKITAATDGFDFLGWHFKVQKNGKFKSTPSVDNFKAFRKKVKHIVNNSNYGSIVKAQKLSPIVRGWRNYHKFCKMDGSKHSLWFLNHRTYTVFTKESKHTRQSSEKLIKKAFPLVPNSENKHVMVQGIKSPYDGNLTCWSKRNSKLYDGHTSKALTKQNHKCASCGLKFIGEERVHLHHRDGNHDNWKPNNLEALHESCHDYRHMSKTERLEHHHHHH", "soluble on expression in E. coli": "not soluble"}, {"sequence": "MSLGSKIVVTGATGNVGTSVVRLLSEDPEVGTVLGLARRIPDWSPAKTEWAAVDLASEQSDLTSHFADADAVVHLAWAFQPTHDPATTWRTNVLGSIRVFEAVAAAGVPALVHASSVGAYSPGPKNHAVDESWPTHGWPDAAYCREKAYLERALDTFERDHPGIRVVRMRPAFLFKRESASEQRRIFGGRFLPGPAARPELLPFLPDVPGLRVQALHTDDAARAYRLAVRSADARGAFNLAAEPPVDAELLGELLGVRPVRLPRAAARSAIAAAWGMRLLPASPHLFDAVLRLPVMDCTRARVELGWGATRTATEVLEEFLRGLRQGAGADTEGHHHHHH", "soluble on expression in E. coli": "soluble"}, {"sequence": "MSLDDKATKPHDRLAQALAEDMAAVNALIRERMSSEHAPRIPEVTAHLIEAGGKRLRPMLTLAAARLVGYGGPFHVHLAATVEFIHTATLLHDDVVDESRQRRGRPTANLLWDNKSSVLVGDYLFARSFQLMTDTGNMRVMEILANASAVIAEGEVLQLTAAQNLATTEDIYLRVIRGKTAALFSAATEVGGIIGGAPEDQVQALFDYGDALGIAFQIVDDLLDYGGKSAEIGKNTGDDFRERKLTMPVIKAVALADEAERAFWKRVIEKGDQQDGDLEHAMALMTKHGTLEATRLAAIGWTDTARKALAKLPDHPLRQMLDDLADYVVERVREGHHHHHH", "soluble on expression in E. coli": "soluble"}, {"sequence": "NILKIRCAPVTWPIGMGKNFKGVYHILNDEIYLFEAGGERLPHEFDIIKGIDNPELEQRFPLEIQQLRDEIELVQAASNEFNLDEFLAGELTPVFFGSAINNFGIQEILNSLIDWAPAPKPRDATVRMVEPDEPKFSGFIFKIQANMDPKHRDRIAFLRVCSGKFERGMKMKHLRINREIAASSVVTFMSHDRELVEEAYAGDIIGIPNHGNIQIGDSFSEGEQLAFTGIPFFAPELFRSVRIKNPLKIKQLQKGLQQLGEEGAVQVFKPMSGADLILGAVGVLQFEVVTSRLANEYGVEAVFDSASIWSARWVSCDDKKKLAEFEKANAGNLAIDAGGNLAYLAPNRVNLGLTQERWPDIVFHETREHSVKL", "soluble on expression in E. coli": "not soluble"}, {"sequence": "MSSARRCLFGRPTPEQRSRTRIWLEDAVKRMRQEESQKWGFDFELETPLPSSAGFVYEVIPENCVPEFYRTKVLTVRTTCSSLDISSTTLTPLSSPSTSDKEEPSLMDPNSSFEDEEEPKKWQFREPPTPRKTPTKRQQKMTDFMAVSRKKNSLSPNKLSPVNVIFTPKSRRPTIRTRSSCSPY", "soluble on expression in E. coli": "not soluble"}, {"sequence": "MGSDKIHHHHHHMRTLFSQQQWIDMKVLVTGATSGLGRNAVEFLCQKGISVRATGRNEAMGKLLEKMGAEFVPADLTELVSSQAKVMLAGIDTLWHCSSFTSPWGTQQAFDLANVRATRRLGEWAVAWGVRNFIHISSPSLYFDYHHHRDIKEDFRPHRFANEFARSKAASEEVINMLSQANPQTRFTILRPQSLFGPHDKVFIPRLAHMMHHYGSILLPHGGSALVDMTYYENAVHAMWLASQEACDKLPSGRVYNITNGEHRTLRSIVQKLIDELNIDCRIRSVPYPMLDMIARSMERLGRKSAKEPPLTHYGVSKLNFDFTLDITRAQEELGYQPVITLDEGIEKTAAWLRDHGKLPR", "soluble on expression in E. coli": "not soluble"}, {"sequence": "GMEGLVMNTRRALFADWRVREAMLLAFDFDLINRTLTGGAEPRIASYFSNSALGMEAGAPATGRERALLEPFAADLLPGTLDGYALPATHGASNRGNLRKAARLLSEAGWRIEDGMLEGPGGTPFAFEILLPQGADAMIAASIIYRQALTRLGISARITTVDPAQFKQRVDNQDFDMTSFLRSLTLSPGNEQLLYWSAEDKDLPGSRNLMGMESPAAEAVIRHMLATDDAEEFQASVRALDRVLTAGRYVIPMWYSR", "soluble on expression in E. coli": "not soluble"}, {"sequence": "GDLVGPGCAEYAAANPTGPASVQGMSQDPVAVAASNNPELTTLTAALSGQLNPQVNLVDTLNSGQYTVFAPTNAAFSKLPASTIDELKTNSSLLTSILTYHVVAGQTSPANVVGTRQTLQGASVTVTGQGNSLKVGNADVVCGGVSTANATVYMIDSVLMPPA", "soluble on expression in E. coli": "soluble"}, {"sequence": "MGSDKIHHHHHHMLKRLLDYNDGEEMDIVVLIKNSQLRRNKKDKLFLAMQFGDGSGEIRGNYWDASHQDAATFSTGTIVELNGKREEYQGRPQIRIYSLRVVGPQEGYSLDEFIKSAPETTNDMKGEIDDFVKQIQNRTWRSIVEYLLKKWDKRFFDYPAGKSNHHALRGGLAYHTLAMLKDARGLADNYEQINRSLLYAGCILHDMGKVQELTGPAATQYTIEGNLVGHLVLIDEQIMLAAQDLKIDLESEDLLLLRHMVLSHHGKFEYGSPKLPALLEAEILHRIDDLDAMVYAVTNALQHTGKGTFTEPLQSQDGKRYYRPKNDPELDQAKNLE", "soluble on expression in E. coli": "not soluble"}, {"sequence": "QKLVQLILDEIVEGGAKVEWTDIAGQDVAKQALQEMVILPSVRPELFTGLRAPAKGLLLFGPPGNGKTLLARAVATECSATFLNISAASLTSKYVGDGEKLVRALFAVARHMQPSIIFIDEVDSLLSERSSSEHEASRRLKTEFLVEFDGLPGNPDGDRIVVLAATNRPQELDEAALRRFTKRVYVSLPDEQTRELLLNRLLQKQGSPLDTEALRRLAKITDGYSGSDLTALAKDAALEPIRELNVEQVKCLDISAMRAITEQDFHSSLKRIRRSVAPQSLNSYEKWSQDYGDITIK", "soluble on expression in E. coli": "soluble"}, {"sequence": "MGSDKIHHHHHHMNDINLLPLTSAYLDLILEWRNNPEVRRNMYTSHVISKAEHYAWFKKLESDNTKQCFIFVLNGVPSGFISFVDINLNSKSATWAFYSGNTSVRGIGSLMEVSALNYAFSTLGLHKLSCEVLEFNNMVVRFHEKYGFHVEGVFKKHHFSEGEYWDIYRLAIFNEEWARCKLEINLKKQSISPGSSYRENVFFTNENIIGFSALSGDCNQIHLNKQYAIKNGFDNNLVHGFLVGSVFSKVFGTRFPGDGCIYISQSLSFLSPVYPDDLLEASFVVLSKIGRKLVVETSITNLHSNKKVIDGVAELLISMDSQIGYLNQYL", "soluble on expression in E. coli": "not soluble"}, {"sequence": "MIPKQLSEAEAAVVLNLTVSQVRRLRHKGKLGYTPGRPPRIGEDDIEAYLRAVKRRPTLPPPTEPPTPVIEKDSYADIQRRVREKRLKLRLRSSQRSLG", "soluble on expression in E. coli": "not soluble"}, {"sequence": "TDLDAVRIKVDTVNAKPGDTVRIPVRFSGIPSKGIANCDFVYSYDPNVLEIIEIEPGELIVDPNPTKSFDTAVYPDRKMIVFLFAEDSGTGAYAITEDGVFATIVAKVKSGAPNGLSVIKFVEVGGFANNDLVEQKTQFFDGGVNVG", "soluble on expression in E. coli": "soluble"}, {"sequence": "MSWKFEEKSPIYAQIAQHVMMQIISQEIKSGDQLPTVREYAEIAGVNPNTMQRAFTELEREGMVYSQRTAGRFVTDDQKLIARKRRELAISELESFITNMTKMGFSHTEIIPVLTSFLKEDSQ", "soluble on expression in E. coli": "not soluble"}, {"sequence": "MASKRIIRMSDLLHTTPVFNRGYRFQWEQAQQSYVILYPEGLVRLNESATLILKQIDGKLTVHDIIQNLSAQFPDATGLDQDIVEFLKQAESRQWICLQ", "soluble on expression in E. coli": "not soluble"}, {"sequence": "MGSDKIHHHHHHMKLLSVVKIWDRGDHNAFTDLIRFDGKLYCAFREGSAHVSPDGALRILVSEDDGSSWKEAALIKLDEGDLRDARLLVWLGELYLFGARAIAGEPLQSLMWRSSDGCRWQAAEHCADTGYWLWRVIADNNEQSVSRAPALYGVAYRPGPDGDVRLYRAAPQGPLKGTDFIPLVAALNSEGYVNETGLEITDGIFTCLLRRDPVWDDRRNGLLGKAKAPFMDWQWLELDCRIGGPVVFRWCNRLLAIVRLYDEKVRTSLVEICETTGHVAEHLSLPSGGDTSYAGVVMEHSVKGDELKVSYYSSHEGKTAIYFAAIRLE", "soluble on expression in E. coli": "not soluble"}, {"sequence": "MAHHHHHHMRSLPNIIVTGVPGVGKTTLCEELVEILNKQLKENQQAESASQMKHLNLSKVIKEERLYEEFDDQLDASIYSSDMVNEKLEKLKLENGGYIIDFHDVDFLDEKELIDHIFLLTASTNKLYERLEKRNYSEEKIKNNIECEIFQVIKEDILTSYNDPSIFDELENNDMEQYESNLQLIKGWVLSWVKNGVAMPR", "soluble on expression in E. coli": "soluble"}, {"sequence": "EVKEEDAFYSKKCKLFYKKDNEFKEKGIGTLHLKPTANQKTQLLVRADTNLGNILLNVLIPPNMPCTRTGKNNVLIVCVPNPPIDEKNATMPVTMLIRVKTSEDADELHKILLEKKDA", "soluble on expression in E. coli": "soluble"}, {"sequence": "MQRIIKNNEVIDETWHLLPKDTTLDSLSNCDDLIVPLALWREHAHALKARDGGLGVWLDSDEEAEEIGEDVDQFQVIALNFPAFTDGRSFSNARLLRDRYGFKGELRAIGDVLRDQLFYMRRCGFDAFAVRADKDPYDALEGLKDFSVTYQAATDEPLPLFRRR", "soluble on expression in E. coli": "not soluble"}, {"sequence": "MKMQKELSVYLKQILQAAQYIRLYTDKMDYGQFSADTKTVQAVVFNLFLIGENATHILKSYPEFAEETKYLNWIGMRGYCAIGLPMATLK", "soluble on expression in E. coli": "not soluble"}, {"sequence": "MSNEYDEYIANHTDPVKAINWNVIPDEKDLEVWDRLTGNFWLPEKIPVSNDIQSWNKMTPQEQLATMRVFTGLTLLDTIQGTVGAISLLPDAETMHEEAVYTNIAFMESVHAKSYSNIFMTLASTPQINEAFRWSEENENLQRKAKIIMSYYNGDDPLKKKVASTLLESFLFYSGFYLPMYLSSRAKLTNTADIIRLIIRDESVHGYYIGYKYQQGVKKLSEAEQEEYKAYTFDLMYDLYENEIEYTEDIYDDLGWTEDVKRFLRYNANKALNNLGYEGLFPTDETKVSPAILSSLSPNADENHDFFSGSGSSYVIGKAEDTTDDDWDF", "soluble on expression in E. coli": "soluble"}, {"sequence": "MTEMELKLIKIDTSHYFEKKPGLGERVDYAGRCFYNKFQRVNAMLTSSLIQKHLKREIEIAHNLILRNDKVENIVFDYNGRNPERFYHKAQLLLREEGFMNFTAYNTKTPGHLHLYVHKGHTELGEGERLVKTLSMKLAQGLPKEWKVFPSNEWPKEFNILALPYEVFAKERGSSWAKHL", "soluble on expression in E. coli": "soluble"}, {"sequence": "MISRTQRLLSLSTAMLLATTAAAVAEPSEELIAAAKKEGTLTTIALPHNWCGYGDVIAGFKAKYGIEVNELNPDAGSGDEIEAIKANKGNTGPQAPDVIDVGLSFGPSAKAEGLIQPYKVSTWDTIPDTAKDPEGYWYGDYYGVLSFVVNTDIVKDVPKDWADLKKSDYANSVALAGDPRASNQAVQAVYAAGLAAGETDAAKAGEAGLAFFAEVNKAGNFVPVIGKSASLAQGSTPIIIAWDYNGLSWRDSLNGNPPVEVVVPASGVVAGVYVQAISAFAPHPNAAKLWMEYLYSDEGQLGWLKGYCHPIRFNDLVKNGKVPKEMLDKLPPAESYEKAVFPTLDEQAKGKEAITTKWDSVVGASVQ", "soluble on expression in E. coli": "not soluble"}]}]}
